Laboratory results taken from the DeepSol protein solubility set.

Assay: soluble on expression in E. coli; label from the status in PepcDB or PDB records

Sequence | soluble on expression in E. coli
MGSDKIHHHHHHMINQAKIEHSGLVDDFIGLYQALNKDNLHLLAEVYDDNICFIDPMHQVNGLNALTQYFAKLYQNIGYIHFEIKEVLQDDTQASLFWQMQYRHPKLNKGEVVRVDGMSQLKFHQRIYFHRDYFDLGQMLYEHLPCMGGLIRLLKDRAAK | not soluble
MYFPIVALIGRYQDTGLDAPLTALAQMLTQAGRRVLVEAETARNAGVSGYPVADWDEIGRTATLAVVMGGDGTVLGAARHLAPYGVPLIGINHGRLGFITDIPLQDAHDALGRVLEGNYQAEDRMLLQGGVWRGEQQMYSASAVNDVVLNRAGRGGMIEVRVELDGAFMYTQRADGLIIATPTGSTAYSLSANGPILHPGMNAMVLVPVAPQTLSNRPIVIPDSGVLNMTLTAMGRVEIGASVHFDMQTWSDLQPGDRITVQRAPHTIRFVHPEGYSFFSTLRRKLHWNLMPQATDNLELEHHHHHH | soluble
MALSDRLELVSASEIRKLFDIAAGMKDVISLGIGEPDFDTPQHIKEYAKEALDKGLTHYGPNIGLLELREAIAEKLKKQNGIEADPKTEIMVLLGANQAFLMGLSAFLKDGEEVLIPTPAFVSYAPAVILAGGKPVEVPTYEEDEFRLNVDELKKYVTDKTRALIINSPCNPTGAVLTKKDLEEIADFVVEHDLIVISDEVYEHFIYDDARHYSIASLDGMFERTITVNGFSKTFAMTGWRLGFVAAPSWIIERMVKFQMYNATCPVTFIQYAAAKALKDERSWKAVEEMRKEYDRRRKLVWKRLNEMGLPTVKPKGAFYIFPRIRDTGLTSKKFSELMLKEARVAVVPGSAFGKAGEGYVRISYATAYEKLEEAMDRMERVLKERKLV | soluble
MSLIRDMQLSRFSIPFAAPIRVGGQELNKRDGLLVAVRDDQGHTGWGEAAPLPGLDTISLDQCQGELCPIRKAFADQALNWDSFSLTAPMMGLCPEIPGLNPISAFGVESALAWLGLCSGQWGIAGADELGIAVNGLFVPSPDPDRLPAQAKQLKASGFSTVKIKIGRMDSDDEIRQILELDSLFNHKLALRLDANRSLDFAQYQSYFEALKHLNIEYVEEPLKPEYDFFEAAQIPWPLALDESLESYANLDEPFPKSLGAVILKPGSFQGVHGMAQAMEHLHTQGIKTVLSSSFNNTMGMSMLGLLANLYAPETAHGLDTLKYFQPSDLSLGLSIAKGRMAIPVDLFGGGLNLASGLMEEIAEGHHHHHH | soluble
MNNKKTGVLLVNLGTPTAPTAAAVKQFLSEFLHDKRVVDMNRFIWCPLLHGVILPIRAPKVAKLYESVWMEEGSPLLVYSQRQVKALEARLSMPVALGMTYGEPRIKSGIESLEQQGCDEIIILPLYPQYSRTTTAAVFDQIAKQYKTTPVLPNFTMIHNYHDHPLYIKALANSVRQSWERNGKGDYVLCSYHGIPQRFVDNGDIYAAHCERTTELLAQELGLTSEQIGMSYQSRFGREEWLKPYTSETLKALAPKGIKSLDIISPAFSSDCLETLEELSEECKEIFMESGGQKYTFIPCLNDDELHIEMMADIVSSKIFNK | not soluble
MTRIAIALAQDFADWEPALLAAAARSYLGVEIVHATPDGMPVTSMGGLKVTPDTSYDALDPVDIDALVIPGGLSWEKGTAADLGGLVKRFRDRDRLVAGICAAASALGGTGVLNDVAHTGNALASHKAYPAYRGEAHYRDQPRAVSDGGVVTAAGSAPVSFAVEILKSLGLFGPEAEAELQIFAAEHR | soluble
VKNKKFTIIGGDLRSVKLAELIVAEGNKVNIYGFKNANFEIGIEESEDLDHAIGEADVIVGPTPCSTDNETINTPFHSQKIFIKDIFKKMNKSQLFIAGRITDKIAQLADVYNVYSVDLLEREEMAVLNAIPTAEGAIQIAMEEMPITLHGSNALILGFGRIGKILAKMLHGIGSNVYVEARKYSDLAWIESYGYKPVFITELESYIDRANVIFNTIPSIVLDENLLRKVNKDCLLIDLASKPGGIDFEKAKEMGLKTIWALSLPGKVAPVTAAKFIKDTISNIIDELGV | not soluble
MSKIEIFEAAGCCATSSVVVSDEAVKWNASAEWAKKHGVNIQRYSLAKNPQQFLNTPVIRAFLNTSGMESLPATLLDGQLVMAGKLPSREDIARWAG | soluble
MGSDKIHHHHHHMSRFTYAYMMMTRLETLKNNLQAAFGQDLALTESLGELTLEVAAEQWFSACTKLRTDPALRFESCIDLCGVDYLTWGNGTQPEEKTGPVTHGRYAVVVHLLSIEHNWRLRVRTWAPDDEFPMVSSLLECWPGVNWFEREAFDLYGIVFEGHPDLRRILTDYGFIGHPFRKDFPLSGTVEMRYDPEQKRVIYQPVTIDPREITPRVVREGSYGMGR | not soluble
MGSSHHHHHHSSGLVPRGSHMQAATVVINRRALRHNLQRLRELAPASKMVAVVKANAYGHGLLETARTLPDADAFGVARLEEALRLRAGGITKPVLLLEGFFDARDLPTISAQHFHTAVHNEEQLAALEEASLDEPVTVWMKLDTGMHRLGVRPEQAEAFYHRLTQCKNVRQPVNIVSHFARADEPKCGATEKQLAIFNTFCEGKPGQRSIAASGGILLWPQSHFDWVRPGIILYGVSPLKDRSTGADFGCQPVMSLTSSLIAVREHKAGEPVGYGGTWVSERDTRLGVVAMGYGDGYPRAAPSGTPVLVNGREVPIVGRVAMDMICVDLGPQAQDKAGDPVILWGEGLPVERIAEMTKVSAYELITRLTSRVAMKYVD | soluble
MTMPVNTIMGLFAKSPIKPLQRHVVCVNECCSHLINFFEVCNKGDWEKAGEIRAQISHLEKEADVLKREIRLKLPRGLFMPVDRSDMLELLTQQDKLANLAKDIAGRVYGRQLVIPEPLQENFIAYVRRCLDAANQAQNVINELDELLETGFKGREVTLVAEMIHQLDVIEDDTDSMQIRLRQQLMAIESKMNPIDVMFLYKILEWVGGIADQAQRVGARLELMLSRS | not soluble
MGSDKIHHHHHHMPPLDLTHIRQHHTVAELIALGKARRQVTPFEKLGTFTPVKRNASDYLKHVREMLVPELLPLRRERMSASAFAFFRGSVELMDYDLDYQSSTEIPAVVCGDAHIGNFGFYASPERRLVFDLNDFDEAGVHPWEWDLRRLLVSVLLAARDSNFKPKKVEKLIQAASASYREALKRMFDQTTLDRFYRDNEVQAVLNFGGAPEDTADLIASLVKKAQKRNSEQVVRKFTVTNSRGERQFKENAPRSVHIDRQTYQGLKAGISEYLLNVRTDVALLLSQYEVTDIIRHSVGVGSFGSLCYLVLLTSTDGSHMVLQIKEALPTRKVGSQSRPALTAAMELTEGQRIVSSQRILQATSDAFLGYFQMENKSFYVRQFRDMKESIDIPTLDWGQFQAYANTCAMILAKAHAQSPTAAMIRGYVGNSAKFDEAMAKWATAYVEQVDNDYQDFLDV | not soluble
MGSDKIHHHHHHMWGYLQGKQVALKRNRVDLYHFGYMIRSKSARKLGTTTAQQIKDITDEIRAFLVKDHRDILSESFMNKEKRAAVEQIIKSFLLSNQVVISDVPSEQLLNMVCDDIVGFGIIEPLKEDQDVTDIYINGTKEIIYEKIGEGELTFPYRFETEEEVKALAYKMVNSTSESLNTAKPYVDCVFPYIRINIALDELGGLGTTITIRKNADHLRASEERMLSTNQASKEMLDFLAAAVKAKMNILVAGATGTGKSEFMKFLASHIPKGKKKERTLVVEDNPELYLHRIFPEHHFVPMQCRASEVEENAIDFDRLLTNALRQGPKRLIVGESRGKEALKMINFFQTGHPGFTSVHARSAIEAVRRLMLMCLQSGANIDAQYLYELISQTFDVIVFLEKKDDGNRYITEMIELLDYRGDIQFNELSQFIPTYEEQDEINESIGKIHGQHIITGKMSAKMEKKFRSATSVNPALYAPFLSQQEVQYA | not soluble
MGSDKIHHHHHHMPRPAPRVTNSPMNTSPTWGVVATVKAPEHEILRFAAWHLELGAHRLFLYLDDPDPAVFARLKAHPRIRVFACDDSYWQRRKLSRPVKHQARQTMNARHAYNRADVDWLAHIDVDEFIWSETPIAAVLSGLPDDTLCARMRPIEALAGGDALYKAFIPGGPARDGIVRRLYPTFGAFVKGGFMSHVAGKVFARTGMEKVDFRIHNIFRNKEMNPHQVELDMVDLCHRHGADWDHWIAAYRYRIAQGSYRPDLAPNVPREAGGLSMHELLSGIEEEQGEDGLRAFFDELNACAPEGRARLRAEGMLKHRPLDLDGAMQKQFPK | not soluble
MADSQTSSNRAGEFSIPPNTDFRAIFFANAAEQQHIKLFIGDSQEPAAYHKLTTRDGPREATLNSGNGKIRFEVSVNGKPSATDARLAPINGKKSDGSPFTVNFGIVVSEDGHDSDYNDGIVVLQWPIG | soluble
MAGDPMKQFAQTYYLLQFIICLICLSISCGEGGNDNYSETNDERNKEPEITVSPITNLEAKSTQIANQLLITWQNPNTPNLLGVELSYLQKNGGTHNGKQIIQGAAGKTGNYTLQLPQYGTYEISAIAIDNYGHRSSAVTVIATPAETTVPFSWATLADSCTYVLIEQFMNKSKGTFWSTPKDMSDESTYIYWQQAHAMDVVIYSYKRIKDTNKQLAATYRTYFERWYANHANNYHRNPSDETGFLNDFTDDMCWICLTLIHLSEATGDEKFAQTAKIVYDKYIITRAWTDDKGTGLPWNTTQNDRNACTNSPGCLVAAKLYQRYEDGNYLSDAKKLYEYVVNNSYNADGRVEEPPLTYTQGTFGEACRQLYHITQESKYMDKAKQVINYAATSDRCLRNGILRDEGSSMDQSIFKSVYIPYAVNLALDEASSSIGKHLITFLKNNAETLRMNLNHAAYPAMYCNYWWGEMWKSSEPASMGAQVSGASLMEGIARLEAAALEHHHHHH | not soluble
SAGVRGLRLVERYTQDTANIINNVIKLDKQKVEAFSIQYKDPKNFRVQVKINAKGNYKKDTVKTYLSQVGLSDGDLNDTGTLEAEIIYTYMPPAASFFSASKFDKLTRAINFNTNLRIQIIGKDSVMTKLLQQSSFVKQLADQKFQDQSINLLPYVLYSI | not soluble
MGSDKIHHHHHHMSAYPPLNSLRIFEAAARLESFSAAAGELFVTHGAVSKQIKQLEDWLGVQLFERSGGRVRLTDAGWRYLVQVQDGLDLIANATSQLLQPNRQRRLTINSTPTFAAFWLLPRLAGFRSQLPELELHLVTSDRDLSRLDAPFDVAIRRGPGDWPGHIAKPFLKEWELPLCSPALLSRQPLAQAADLTQHTLLHADTRPTAWPRWLTLAGAPELKPACSLHFDKFSLALQAAVDGLGVVLGPLPMAHELIAAGKLVSPLPGPVVTVRDYCWVVPRMSAEDATVATFCRWLEGEAEKAGLSGVESG | not soluble
EQLAGIDNLRDLDPTGALATKLEAIAPTVSTYDSYAGRLISEYGLLLPVEPSSRLISQTELFQIAHSIVSAHTGALNTSNSPNTVTSTLISLVSEMDNHMVSPTDIEEESAAFLAMIEDVEATSKRAPSKEVYKWRDTQVLRNELLPLVQQLKTHLADNHLMTFGEQMSLAARLAAENPQVGASQRNRYQIIMLDEYQDTGHAQRVLLKSLFAGTAVTAVGDPMQSIYGWRGATAANLERFLTDFGSNGSPATKKELTVSFRNPPEVLDLANRVSRELLGVPEDPRRPVQPLEPGPAALNGIVRLGFFPSMDEERSYVADHLAQAYEQHDGDHPFTAAVLVRKRKHSAAIALELQQRGVPVE | not soluble
MSHLDEVIARVDAAIEESVIAHMNELLIALSDDAELSREDRYTQQQRLRTAIAHHGRKHKEDMEARHEQLTKGGTIL | soluble
QVRQSPQSLTVWEGETTILNCSYEDSTFDYFPWYRQFPGKSPALLIAISLVSNKKEDGRFTIFFNKREKKLSLHITDSQPGDSATYFCAATGSFNKLTFGAGTRLAVSPY | soluble
